The experiment has as its target Chinese hamster BiP, wild type, with an N-terminal His6-tag (UK173) (Chinese hamster) (UniProt G3I8R9). The experiment can be described thus: SEC; 40 µM BiP with 1 mM ADP, 20 min at 24°C; SEC-3 HPLC column, 50 mM HEPES-KOH pH 7.4, 150 mM KCl, 10 mM MgCl2, 26°C; A230.

Usually stoichiometry N stands for a count of units in the complex or per binding partner.

Values joined by “and” are separate entries in the source; they are usually repeats but may differ in a detail not shown here. Equal values may be shown once.

On to “Chinese hamster BiP, wild type, with an N-terminal His6-tag (UK173) (from UniProt G3I8R9 19-654) (natural protein)”, for which the stoichiometry N is 2 and 3.

Source of the values: publication PMC7758071.
